According to the supplement of paper PMC9233669:
This sample holds only a part of the variants without activity.

Assays:
biotinyl-Val-oxazolone = experiment: self-aminoacylation, catalytic enhancement (BVO) (fold over background); higher = more active; k-Seq, kA / k0A0; sequences stand for … in GGGAAUGGAUCCACAUCUACGAAUUC…UUCACUGCAGACUUGACGAAGCUG
Summary of the method: (§1)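 Mutagenized RNA pools with a 21-nt variable region (0.43 μM) were reacted with each biotinyl-aminoacyl-oxazolone at 2–1250 μM for 90 minutes at room temperature, in 50 μL HEPES/NaCl/KCl/MgCl2/CaCl2 buffer containing 5% acetonitrile at pH 6.9–7.0. RNA captured on streptavidin was quantified by triplicate qPCR and by Illumina sequencing. The fraction reacted for each sequence was fit to a pseudo-first-order model with bootstrapping, and catalytic enhancement is the median kA divided by the uncatalyzed rate, taken as the low-activity peak of a bimodal Gaussian fit.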

biotinyl-Trp-oxazolone = experiment: self-aminoacylation, catalytic enhancement (BWO) (fold over background); higher = more active; k-Seq, kA / k0A0; sequences stand for … in GGGAAUGGAUCCACAUCUACGAAUUC…UUCACUGCAGACUUGACGAAGCUG
Summary of the method: as §1

biotinyl-Phe-oxazolone = experiment: self-aminoacylation, catalytic enhancement (BFO) (fold over background); higher = more active; k-Seq, kA / k0A0; sequences stand for … in GGGAAUGGAUCCACAUCUACGAAUUC…UUCACUGCAGACUUGACGAAGCUG
Summary of the method: as §1

biotinyl-Leu-oxazolone = experiment: self-aminoacylation, catalytic enhancement (BLO) (fold over background); higher = more active; k-Seq, kA / k0A0; sequences stand for … in GGGAAUGGAUCCACAUCUACGAAUUC…UUCACUGCAGACUUGACGAAGCUG
Summary of the method: as §1

biotinyl-Ile-oxazolone = experiment: self-aminoacylation, catalytic enhancement (BIO) (fold over background); higher = more active; k-Seq, kA / k0A0; sequences stand for … in GGGAAUGGAUCCACAUCUACGAAUUC…UUCACUGCAGACUUGACGAAGCUG
Summary of the method: as §1

biotinyl-Met-oxazolone = experiment: self-aminoacylation, catalytic enhancement (BMO) (fold over background); higher = more active; k-Seq, kA / k0A0; sequences stand for … in GGGAAUGGAUCCACAUCUACGAAUUC…UUCACUGCAGACUUGACGAAGCUG
Summary of the method: as §1

Sequence	self-aminoacylation (biotinyl-Val-oxazolone)	self-aminoacylation (biotinyl-Trp-oxazolone)	self-aminoacylation (biotinyl-Phe-oxazolone)	self-aminoacylation (biotinyl-Leu-oxazolone)	self-aminoacylation (biotinyl-Ile-oxazolone)	self-aminoacylation (biotinyl-Met-oxazolone)
AGUCACCUAGGUCAUCGGGAG [Fam2.2 aminoacylation ribozyme variant]	1.76	2.56	1.38	1.74	1.65	1.93
AGUCACCUAGGUCAUCGGGCG [Fam2.2 aminoacylation ribozyme variant]	4.05	5.95	25.5	4.87	4.56	5.28
AGUCACCUAGGUCAUCGGGGG [Fam2.2 aminoacylation ribozyme variant]	2.9	3.68	17.5	3.14	3.13	3.3
AGUCACCUAGGUCAUCGGUUG [Fam2.2 aminoacylation ribozyme variant]	1.71	1.82	10.1	2.12	1.83	1.99
AGUCACCUAGGUCGUCGGGUG [Fam2.2 aminoacylation ribozyme variant]	2.43	2.71	12.9	4.29	2.48	2.28
AGUCACCUAGGUGAUCGGGUG [Fam2.2 aminoacylation ribozyme variant]	4.38	6.05	24.3	5.45	4.34	4.24
AGUCUCCUAGGUCAUCGGGUG [Fam2.2 aminoacylation ribozyme variant]	6.91	9.36	58.7	12.9	5.63	9.95
AGUUCCCUGGUCAUCGAGUGA [Fam2.1 aminoacylation ribozyme variant]	5	10.9	43.9	9.8	4.54	7.95
AGUUUUGCUAAUAGUCGCAAG [Fam3.1 aminoacylation ribozyme variant]	2.1	3.48	4.55	2.61	2.4	2.35
AUAAACCUGGUCAUCGAGUGA [Fam2.1 aminoacylation ribozyme variant]	4.1	9.62	11.4	8.44	4.13	7.78
AUAACACUGGUCAUCGAGUGA [Fam2.1 aminoacylation ribozyme variant]	3.06	6.89	14.7	4.62	2.83	4.84
AUAACCCCGGUCAUCGAGUGA [Fam2.1 aminoacylation ribozyme variant]	3.32	6.89	32.9	7.29	3.75	7.41
AUAACCCUGGUCAUCAAGUGA [Fam2.1 aminoacylation ribozyme variant]	1.27	2.39	2.73	2.24	1.45	2.3
AUAACCCUGGUCAUCGAGUGG [Fam2.1 aminoacylation ribozyme variant]	3.38	6.21	20.8	7.76	3.4	8.46
AUAACCCUGGUCAUCGAGUUA [Fam2.1 aminoacylation ribozyme variant]	1.34	1.12	4.86	2.86	1.7	2.5
AUAACCCUGGUCAUCGCGUGA [Fam2.1 aminoacylation ribozyme variant]	7.96	18.7	103	18.2	6.85	16
AUAACCCUGGUCAUCGGGUGA [Fam2.1 aminoacylation ribozyme variant]	13.4	35.3	183	35.6	12.1	31.3
AUAACCCUGGUCAUGGAGUGA [Fam2.1 aminoacylation ribozyme variant]	2.48	4.89	14.6	4.08	2.6	4.2
AUAACCGUGGUCAUCGAGUGA [Fam2.1 aminoacylation ribozyme variant]	2.85	6.26	25.1	5.49	2.64	5.06
AUAAGCCUGGUCAUCGAGUGA [Fam2.1 aminoacylation ribozyme variant]	4.25	9.48	29.4	7.06	4.71	6.25
AUAAUCCUGGUCAUCGAGUGA [Fam2.1 aminoacylation ribozyme variant]	3.48	7.96	9.11	6.95	3.72	7.24
AUACAACUAGGUCAUCGGGUG [Fam2.2 aminoacylation ribozyme variant]	3.22	5.27	34.4	6.09	3.32	5.2
AUACACAUAGGUCAUCGGGUG [Fam2.2 aminoacylation ribozyme variant]	3.83	6.66	40.3	6.21	3.69	5.61
AUACACCUAGGCCAUCGGGUG [Fam2.2 aminoacylation ribozyme variant]	2.32	3.66	12.9	3.51	2.73	2.42
AUACACCUAGGUCAUCCGGUG [Fam2.2 aminoacylation ribozyme variant]	3.14	5.38	30.6	6.81	3.5	3.91
AUACACCUAGGUCAUCGGGUC [Fam2.2 aminoacylation ribozyme variant]	1.29	1.18	7.44	1.57	1.08	1.31

Sequence	self-aminoacylation (biotinyl-Val-oxazolone)	self-aminoacylation (biotinyl-Trp-oxazolone)	self-aminoacylation (biotinyl-Phe-oxazolone)	self-aminoacylation (biotinyl-Leu-oxazolone)	self-aminoacylation (biotinyl-Ile-oxazolone)	self-aminoacylation (biotinyl-Met-oxazolone)
AUACACCUAGGUCAUUGGGUG [Fam2.2 aminoacylation ribozyme variant]	2.24	3.17	13.3	2.14	2.02	2.36
AUACACCUAGGUCCUCGGGUG [Fam2.2 aminoacylation ribozyme variant]	3.57	3.71	21.8	3.48	3.44	2.71
AUACACCUAGGUCUUCGGGUG [Fam2.2 aminoacylation ribozyme variant]	3.04	2.64	23.2	3.72	2.7	2.71
AUACACCUAGUUCAUCGGGUG [Fam2.2 aminoacylation ribozyme variant]	2.19	3.48	4.89	1.78	2.33	1.73
AUACACUUAGGUCAUCGGGUG [Fam2.2 aminoacylation ribozyme variant]	3.3	5.82	36.6	6.18	3.82	5.5
AUACAUCUAGGUCAUCGGGUG [Fam2.2 aminoacylation ribozyme variant]	2.85	5.51	24.4	4.8	3.19	4.39
AUACUCCAAACAAUCGGUCUG [Fam1A.1 aminoacylation ribozyme variant]	0.743	1.61	1.98	0.534	0.827	0.759
AUACUUCAAACAAUCGGACUG [Fam1A.1 aminoacylation ribozyme variant]	0.666	2.34	3.32	0.522	0.748	0.548
AUACUUCAAACAAUCGGUUUG [Fam1A.1 aminoacylation ribozyme variant]	1.06	9.98	12.9	1.14	1.05	0.91
AUACUUCAAACAAUGGGUCUG [Fam1A.1 aminoacylation ribozyme variant]	0.921	0.934	0.774	0.847	0.935	0.862
AUACUUCAAACACUCGGUCUG [Fam1A.1 aminoacylation ribozyme variant]	0.821	0.981	1.31	0.917	1.06	0.83
AUACUUCAAACAUUCGGUCUG [Fam1A.1 aminoacylation ribozyme variant]	1.1	1.11	1.19	1.09	1.18	1.09
AUACUUCACACAAUCGGUCUG [Fam1A.1 aminoacylation ribozyme variant]	0.861	0.814	1.15	0.683	0.901	0.927
AUAGCCCUGGUCAUCGAGUGA [Fam2.1 aminoacylation ribozyme variant]	7.53	21.6	78.5	20.3	8.62	19.9
AUCAACCUAGGUCAUCGGGUG [Fam2.2 aminoacylation ribozyme variant]	5.02	7.85	36.3	10.2	4.88	7.11
AUCACCAUGGUCAUCGAGUGA [Fam2.1 aminoacylation ribozyme variant]	5.56	13.2	58.9	11.7	5.49	10.3
AUCACCCGGGUCAUCGAGUGA [Fam2.1 aminoacylation ribozyme variant]	4.32	8.12	51.8	7.28	3.65	7.5
AUCACCCUGGACAUCGAGUGA [Fam2.1 aminoacylation ribozyme variant]	4.56	8.8	68.7	10.4	3.98	9.05
AUCACCCUGGUAAUCGAGUGA [Fam2.1 aminoacylation ribozyme variant]	4.82	13.6	95.4	11.3	4.92	11.2
AUCACCCUGGUCAUGGAGUGA [Fam2.1 aminoacylation ribozyme variant]	3.58	6.96	34	6.86	3.54	6.29
AUCACCCUGGUCAUUGAGUGA [Fam2.1 aminoacylation ribozyme variant]	5.8	12.9	75.1	13	5.63	11.3
AUCACCCUGGUUAUCGAGUGA [Fam2.1 aminoacylation ribozyme variant]	5.37	12.2	86.5	13.5	4.98	12
AUCAGCCUGGUCAUCGAGUGA [Fam2.1 aminoacylation ribozyme variant]	3.49	6.36	32.5	4.62	3.99	4.28
AUCCACCUACGUCAUCGGGUG [Fam2.2 aminoacylation ribozyme variant]	3.75	4.86	41.3	6.58	4.29	6.46
AUCCACCUAGGUCAUCGCGUG [Fam2.2 aminoacylation ribozyme variant]	7.73	8.63	88.1	13.9	7.45	8.4
